Measured values as given in paper PMC9913352, “The Rosetta Stone Hypothesis-Based Interaction of the Tumor Suppressor Proteins Nit1 and Fhit” (Cells, 2023).

Target: the molecule itself
Assay: SEC; untagged proteins after on-column TEV cleavage, Superdex 200-HR, 50 mM Tris/HCl pH 8.0, 100 mM NaCl, 2 mM MgCl2, 0.3 mL/min; calibrated with marker proteins

B1: untagged human Fhit (natural protein)
chain: not shown
notes: Fhit (fragile histidine triad), human, 147 amino acids, ~17 kDa; also called fragile histidine triad
stoichiometry N: 2
